# Patent publication US20060084113A1 (published 2006)
# T1: human neutrophil elastase (HNE), immobilized on agarose beads (human, UniProt P08246 30-247, limits assumed)
# T1 construct: also called HNE beads; leukocyte elastase
# T1 sequence (looked up): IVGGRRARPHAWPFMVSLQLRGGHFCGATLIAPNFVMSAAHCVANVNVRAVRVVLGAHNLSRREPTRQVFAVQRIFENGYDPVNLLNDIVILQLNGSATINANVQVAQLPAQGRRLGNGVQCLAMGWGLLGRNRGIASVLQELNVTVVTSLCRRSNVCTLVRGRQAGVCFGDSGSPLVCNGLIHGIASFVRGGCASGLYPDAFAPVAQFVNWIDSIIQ
# B1: MA-ITI-E7 phage (ITI-DI-III fusion with the EpiNE-7 changes around the P1 position) (designed binder)
# chain: KEDSCQLGYSAGPCVAMFPRYFYNGTSMACETFQYGGCMGNGNNFVTEKECLQTCRGAAETVESCLAKPHTENSFTNVWKDDKTLDRYANYEGCLWNATGVVVCTGDETQCYGTWVPIGLAIPENEGGGSEGGGSEGGGSEGGGTKPPEYGDTPIPGYTYINPLDGTYPPGTEQNPANPNPSLEESQPLNTFMFQNNRFRNRQGALTVYTGTVTQGTDPVKTYYQYTPVSSKAMYDAYWNGKFRDCAFHSGFNEDPFVCEYQGQSSDLPQPPVNAGGGSGGGSGGGSEGGGSEGGGSEGGGSEGGGSGGGSGSGDFDYEKMANANKGAMTENADENALQSDAKGKLDSVATDYGAAIDGFIGDVSGLANGNGATGDFAGSNSQMAQVGDGDNSPLMNNFRQYLPSLPQSVECRPFVFSAGKPYEFSIDCDKINLFRGVFAFLLYVATFMYVFSTFANILRNKES
# Assays:
# [1] = target: normal rabbit serum / IgG purified from normal rabbit serum; experiment: phage titer after normal rabbit IgG and protein A-agarose
# Protein A-agarose beads = Protein A-agarose beads (UniProt P38507); experiment: phage titer after protein A-agarose
# [2] = target: trypsin (immobilized active trypsin, Pierce; or free trypsin) (UniProt P00760); experiment: phage on beads, elution, pfu
# trypsin (immobilized active trypsin, Pierce; or free trypsin), sequence (P00760 24-246): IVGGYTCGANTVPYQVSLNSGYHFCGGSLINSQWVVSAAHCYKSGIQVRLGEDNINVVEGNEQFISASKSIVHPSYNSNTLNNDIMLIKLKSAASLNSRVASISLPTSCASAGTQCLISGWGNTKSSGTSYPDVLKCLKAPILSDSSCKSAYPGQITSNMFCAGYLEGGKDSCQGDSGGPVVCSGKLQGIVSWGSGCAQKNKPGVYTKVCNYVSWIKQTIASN
# [3] = target: anhydro-trypsin (agarose-immobilized, Pierce) (UniProt P00760); experiment: phage on beads, elution, pfu
# [4] = target: anhydro-trypsin (agarose-immobilized, Pierce) (UniProt P00760); experiment: phage on beads, acid elution, pfu; experiment 2
# [5] = target: anhydro-trypsin (agarose-immobilized, Pierce) (UniProt P00760); experiment: phage on beads, acid elution, pfu; experiment 1
# [6] = target: normal rabbit serum / IgG purified from normal rabbit serum; experiment: phage titer after normal rabbit IgG
# [7] = target: trypsin (immobilized active trypsin, Pierce; or free trypsin) (UniProt P00760); experiment: phage on beads, acid elution, pfu
# [8] = target: human neutrophil elastase (HNE), immobilized on agarose beads (human) (UniProt P08246); experiment: phage on beads, acid elution, pfu
# [9] = target: trypsin (immobilized active trypsin, Pierce; or free trypsin) (UniProt P00760); experiment: phage on trypsin beads, pH 2.2 elution
# [10] = target: streptavidin (agarose-immobilized, Sigma) (UniProt P22629); experiment: phage on agarose beads, pH 2.2 elution, dot blot
# streptavidin (agarose-immobilized, Sigma), sequence (P22629 37-163 limits assumed): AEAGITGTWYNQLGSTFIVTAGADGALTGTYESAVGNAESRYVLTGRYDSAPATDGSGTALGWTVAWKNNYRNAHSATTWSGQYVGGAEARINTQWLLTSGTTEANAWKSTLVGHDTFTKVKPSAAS
# [11] = target: anhydro-trypsin (agarose-immobilized, Pierce) (UniProt P00760); experiment: phage on agarose beads, pH 2.2 elution, dot blot
# [12] = target: streptavidin (agarose-immobilized, Sigma) (UniProt P22629); experiment: phage titer after incubation with agarose beads
# [13] = target: anhydro-trypsin (agarose-immobilized, Pierce) (UniProt P00760); experiment: phage titer after incubation with agarose beads
# [14] = target: T1, human neutrophil elastase (HNE), …; experiment: phage on HNE beads, abbreviated pH elution
# [15] = target: T1, human neutrophil elastase (HNE), …; experiment: phage on HNE beads, stepwise pH elution
molecule,measurement,setting,value
"M13mp18 phage (wild type control, non-display phage)","% of input pfu left, +NRS +Protein A",[1],88 % of input
same,"% of input pfu left, +Protein A",Protein A-agarose beads,72 % of input
same,"eluted phage, % of input",[2],0.00023 % of input
same,relative binding (to M13MP18),[2],1 fold
same,"eluted phage, % of input",[3],0.1 % of input
same,relative binding (to M13MP18),[3],1 fold
same,binding relative to M13mp18,[4],1 fold
same,"eluted phage, % of input",[4],0.3 % of input
same,binding relative to M13MP18,[5],1 fold
same,"eluted phage, % of input",[5],0.2 % of input
same,"% of input pfu left, +NRS",[6],104 % of input
same,"eluted phage, % of input",[7],0.0005 % of input
same,relative binding (to M13MP18),[7],1 fold
same,"eluted phage, % of input",[8],0.0003 % of input
same,relative binding (to M13MP18),[8],1 fold
"MK phage (control, no displayed domain)","percent of input phage recovered, CBS pH 6.5",[9],0.00028%
same,"percent of input phage recovered, TBS pH 7.5",[9],0.00034%
same,"total pfu recovered in elution buffer, CBS pH 6.5",[9],1.35e+06 pfu
same,"total pfu recovered in elution buffer, TBS pH 7.5",[9],1.48e+06 pfu
same,"percent of total phage recovered in elution buffer, 5 µl IS",[10],< 1%
same,"percent of total phage recovered in elution buffer, 2 µl IAT",[11],< 1%
same,"percent of total phage recovered in elution buffer, 5 µl IAT",[11],< 1%
same,"percent of total phage recovered in elution buffer, 10 µl IAT",[11],< 1%
same,"percent residual titer, 1 h, 5 µl IS",[12],106%
same,"percent residual titer, 2 h, 5 µl IS",[12],96%
same,"percent residual titer, 4 h, 5 µl IS",[12],98%
same,"percent residual titer, 1 h, 2 µl IAT",[13],97%
same,"percent residual titer, 1 h, 5 µl IAT",[13],110%
same,"percent residual titer, 1 h, 10 µl IAT",[13],99%
same,"percent residual titer, 2 h, 2 µl IAT",[13],103%
same,"percent residual titer, 2 h, 5 µl IAT",[13],111%
same,"percent residual titer, 2 h, 10 µl IAT",[13],93%
same,"percent residual titer, 4 h, 2 µl IAT",[13],95%
same,"percent residual titer, 4 h, 5 µl IAT",[13],96%
same,"percent residual titer, 4 h, 10 µl IAT",[13],106%
B1,fold lower total fraction eluted than EpiNE-7 phage,[14],40 fold
same,fold total fraction eluted against MA-ITI phage,[14],10 fold
same,fold lower total fraction eluted than EpiNE-7 phage,[15],~40 fold
